# In a protein production outcome set (Wang et al. 2014):
# Test: label from the status in PepcDB records
row,Sequence,protein production
1,MDTSRLRPTSPLVRQAAACLDAGEADHADVLLDLHLSRHPEDSAGLILFGLTRVALGRPLEAEQPLRRALALDPIDDPFHARAVCALVDVLKAQGRMAEVSEVLERAGDVAPMNAVFPRMLGAHYRALGQVGAAITAARRAVAVESADGENWRGLAATLLGGAPGEALEALERAKTCGDDGADWWNIRGVALAALGEGEAAREAFKNAILRDGAAPMAWTNLGNLEIRAARSADALERAVEAYGQAIRRAPDSFEAHNNLAQALRDLGRRDEALVHAERAASLRPHDVTVLNTQANILRGLRRVDEAVAILERALACDGRSAETHSNLGLALLAAQDRQRAEEHFRKAAALAPDCVDIIVNLACFLIHINAGKEVLGVLEPALARFPGDVGLLATLGLHYFQENAYEDCATVFETVLAKKPDHVEARASLGVVRWSQGRLVESLALAQSIREDFPEDIRTLFLLGCVHSDLMENASALEVFDLAVEKGGERVPPFHYSNCCFSFHYVEAMEKDDLFARHRRWDALYGAGATELSDVTHHNTRDPERRLRIGYVSPDFRRHSVAYFFLPLVGAHDRAAVEVTCYSLSTLTDQMTDLIREGCDRWRDITTLPAEKAAERVREDEIDILVDLSGHTANNGLSIFALKPAPVQVTYLGYPNTTGLSAIDYRLTDGFADPLGVDEDPASETLWRLPRSFLLFDEVPGLPDPAPPPVLSRGTITFGSFNNMAKVNRGCVAVWKRILDAVPGSRLLLKAKGFRDPATAKVLIERLIDWGVDPEQVSYAPYAKNLMEHVAVYAEVDIALDTFPYNGTTTTFEALHMGVPVIGLRGHRHSGRVGASILGNLGLADRLLGEDVDDMVAKAVALAGDLEGLMRMRAGLRERLRASPLQDGPGFVADLEGAYRAMWRRWCAGPPTFHRQPKNGMWAVEEMEDAIEPVLG,failed
2,MDTTKTIAALFDFDGVIMDTETQYTVFWDEQGRKYLNEEDFGRRIKGQTLTQIYEKYFSDLPEAQQEITAGLNIYEKSMSYEYIPGVEAFIADLRKHGAKIAVVTSSNEEKMQNVYNAHPEFKGMVDRILTGEMFARSKPAPDCFLLGMEIFGATPENSYVFEDSFHGLQAGMTSGATVIGLATTNTREAITGKAHYIIDDFSEMTFEHLLALHR,failed
3,MDVDTAFLNSTMDEPIYVKQPPGFVNERNPDYVWELYGGMYGLKQAPLLWNEHINNTLKKIGFCRHEGEHGLYFRSTSDGPIYIAVYVDDLLVAAPSPKIYDRVKQELTKLYSMKDLGKVDKFLGLNIHQSSNGDITLSLQDYIAKAASESEINTFKLTQTPLCNSKPLFETTSPHLKDITPYQSIVGQLLFCANTGRPDISYPVSLLSRFLREPRAIHLESARRVLRYLYTTRSMCLKYRSGSQLALTVYCDASHGAIHDLPHSTGGYVTLLAGAPVTWSSKKLKGVIPVPSTEAEYITASETVMEI,failed
4,MDVEAWLDERVPLVETHHHHHHENLYFQSHMNHGANIFGVAFNTLLGKDEPQVFATAGSNRVTVYECPRQGGMQLLHCYADPDPDEVFYTCAWSYDLKTSSPLLAAAGYRGVIRVIDVEQNEAVGNYIGHGQAINELKFHPHKLQLLLSGSKDHAIRLWNIQSHVCIAILGGVEGHRDEVLSIDFNMRGDRIVSSGMDHSLKLWCLNTPEFHHKIELSNTFSQEKSTLPFPTVTKHFPDFSTRDIHRNYVDCVQWFGNFVLSKSCENAIVCWKPGQLHQSFEQVKPSDSSCTIIAEFEYDECEIWFVRFGFNPWQKVIALGNQQGKVYVWELDPSDPEGAHMTTLHNSRSVATVRQIAFSRDASVLVYVCDDATVWRWNRRQTTSI,failed
5,MDVFSDRVLLTEESPIRKLVPFAEMAKKRGVRIHHLNIGQPDLKTPEVFFERIYENKPEVVYYSHSAGIWELREAFASYYKRRQRVDVKPENVLVTNGGSEAILFSFAVIANPGDEILVLEPFYANYNAFAKIAGVKLIPVTRRMEEGFAIPQNLESFINERTKGIVLSNPCNPTGVVYGKDEMRYLVEIAERHGLFLIVDEVYSEIVFRGEFASALSIESDKVVVIDSVSKKFSACGARVGCLITRNEELISHAMKLAQGRLAPPLLEQIGSVGLLNLDDSFFDFVRETYRERVETVLKKLEEHGLKRFTKPSGAFYITAELPVEDAEEFARWMLTDFNMDGETTMVAPLRGFYLTPGLGKKEIRIACVLEKDLLSRAIDVLMEGLKMFCSSRISC,not failed
6,MDVLSLVGIILAFVAIVGGNFLEGGHAGALLNGPAALIVIGGTLAAALLQTPVNVLKRGLGMLGWVFFPPREDLSGGIDRIVSWSMTARKEGLLGLESIADAEPDPYARKGLQLLVDGAEPEVIRSILEVDLFTQESRDLQAAKVFESMGGYAPTIGIIGAVMGLIHVMGNLANPAQLGSGIAVAFVATIYGVGFANLLLLPIGNKLKTLVLRQSRYREMLLEGLLSIAEGENPRSIELKLQGFMD,failed
7,MDVLTDQDVQKFRDEGYLVLEGLLSPEECDALRRRMSEIIESMDVPEHCRTQFSTDHDEQLKTQGNADYFITSGDKIRFFFEKGVFDDKGEFVVPKEQSLNKIGHALHAYEPLFKRVTHSPKVQNICKKLELINPVILQSMYIFKQPGIGGEVTPHQDATFLYTQPLGRVMGVWVALEDAMQENGCLWFIPGSHNDGITRRMVRTPKGTFPLTDFIGREKDYDDKLFVPAPVKKGGAVLIHGEVVHRSAANTSDASRHVYTFHIMESENTVWSPENWLQATEELPFPSLYT,failed
8,MDVSFEFEHYQVRLIKSSDAVTIANYFMRNRHHLAPWEPKRSHAFFTPEGWKQRLLQLVELHKHNLAFYFVVVDKNEHKIIGTVSYSNITRFPFHAGHVGYSLDSEYQGKGIMRRAVNVTIDWMFKAQNLHRIMAAYIPRNEKSAKVLAALGFVKEGEAKKYLYINGAWEDHILTSKINDDWKP,not failed
9,MDYLVKALAYDGKVRAYAARTTDMVNEGQRRHGTWPTASAALGRTMTASLMLGAMLKGDDKLTVKIEGGGPIGAIVADANAKGEVRAYVSNPQVHFDLNEQGKLDVRRAVGTNGTLSVVKDLGLREFFTGQVEIVSGELGDDFTYYLVSSEQVPSSVGVGVLVNPDNTILAAGGFIIQLMPGTDDETITKIEQRLSQVEPISKLIQKGLTPEEILEEVLGEKPEILETMPVRFHCPCSKERFETAILGLGKKEIQDMIEEDGQAEAVCHFCNEKYLFTKEELEGLRDQTTR,not failed
10,MEANSGGGGGAEGGRAVTGGGGGGGGSDVELVSKTLQVEHKLFYFDLKENPRGRYLKISEKTSATRSTIIVPSSGISWFLDLFNYYVNSEEHELFSKELQLDSKVFYFDIGENRRGRFLKVSEASVSRNRSTIIVPAGSSPDEGWAAFRNILAEIHEASGLFVMPNQKPSDGQEHLVDDVGAGFIPGHGSQQPSSSEHNVDRTIDSPGSDRSSIILPLSGLKQFHEVIGHFVEITKDKIEVLILLEDGNFQSSNHLNLATSSRLPDRGVQ,failed
11,MEATEKLREKPIKSLFISYLIPAVLGMVLMSVNIVIDAVMISRGVGANGLAGVNVAIPAFSIFFSISLWIGMGGATLYSIALGENKIERARSIFTQSMTVAVIIVGVLAAICLWRIEDLAYVFGANEVILPYALDYLHVLLTFGMIYVLENILSTFIRNDGNPNLAMAGLVVTAVLNIVFDYIFIFIFKWGVTGAASATILSAAIGFLVLLTHFFRKSSILKWTKFHFEWDTVKQIMIIGFPSFTAESTVAIVTIGFNIAFVQYAGEVGVASYAMVNSIHAMTLLLFFGVGAALQPIASFHYGANLAERLREGLQFAVKIAVVLGGVAIIVGLFFGKYIIGLFDVQSPELLELTLTGMSLFFIQYVFLGYNIVYGEYFQSVRQTTKSVLIIMSRGLLFIIPLLWIMPKLFGINGIWLVMPVAEVLTAIIVFTMNRMKHPVPLNMAGEKEAI,failed
12,MEATEKLREKPIKSLFISYLIPAVLGMVLMSVNIVIDAVMISRGVGANGLAGVNVAIPAFSIFFSISLWIGMGGATLYSIALGENKRERARSIFTQSMTVAVVIVGILAAICLWRIEDLAYLFGANEVILPYALDYLHVLLTFGMIYVLENILSTFIRNDGNPNLAMAGLVVTAVLNIVFDYIFIFIFGWGVTGAASATILSAAIGFLVLLTHFFRKSSILKWTKFHFEWDTVKQIMVIGFPSFTAESTVAIVTIGFNIAFVQYAGEVGVASYAMVNSIHAMTLLLFFGVGAALQPIASFHYGANLSERLREGLKFAVKIAVVLGGIAIIVGLFFGKYIIGLFDVQSPELLELTLTGISLFFIQYVFLGYNIVYGEYFQSVRQTKKSVLIIMSRGLLFIIPLLWIMPKLFGINGIWLVMPVAEVMTAIIVFTMNRMKHPVPLNMAGEKEAI,not failed
13,MEATNKMKVEVWSDIMCPFCYIGKRNYEAGLKQFADSNNIEIIWKSFQLDPNIPQDTAVTENVYQYLAERKGMSYEQSVQMHDSVVATAKKAGLDYNFDKAVIANSFNAHRMIQLAKTKDLGDAAEERLFYAYFTEGKNVGNSYVLIELGKDIGLTEAEVQTALTDDTYAYKVRQDVEEAQHLGVRGVPFFVFDRKYAVSGAQPPQAFLETLEKSFSEWRKEHPASPFEVSEGPSCSVDGCD,not failed
14,MECDRNVEKMSQVILLFFIYSFIGWLWETVYCSLKAKKFVYRGFLVGPYCPIYGFGVLSVLYFVEPFENNLLVLYVGSAVLVTILEYVTSYGLEKLFHASWWDYHDVPFNLNGRVALPVSLFWGLGCVLIVKVIQPEIAKVVSFLQATFGNYLALCIVIVMGLDLIYTLLNMQGFKKLITEMGQTLETNQQEFKQRLNTKMEIATADWQKLKERTKKEHFQNRLNFQQRRFINNYPKLTLKNIKNSKEVRHLLEDLKKKGQ,failed
15,MEDAAEQERGFHVITIRKQIVTAALPLQDHWLPLSNLDLLLPPVQISVCFCYKKPRHFLSVAETLKASLAEALVSYYAFAGELVKNSSGEPEILCNNRGVDFLEAVADVELRELNLHDPDESIAKLVPKKKHGVIAIQVTQLKCGSIVVGCTFDHRIADAFSMNMFLVSWAEISRFNAPISSVPSFRRSILNPRRPLIIDSSIDKMYMPVTSLPLPQETTNDLDNILTSRIYYIKENALEDLQTLASGSSPKTGYGQRTKLESFSAFLWKLVAKHTGRDLVSNKNSKMGIVVDGRRRLMEKEDNTYFGNVLSIPFGGQSIDDLIDKPLSWVTNEVHRFLEEAVTKEHFLNLIDWVEIHRPIPAVSRIYSTGTDDGPAFVVSSGRSFPVNKVDFGWGLPVFGSYHFPWEGSSGYVMPMPSPVDDGNGDWVVYLHLTKGQLKFIEEEASHVLKPIDNYYLKINTIN,failed
